We go through 1 protein from PMC2742894, “Crystal Structure of the N-Acetylmannosamine Kinase Domain of GNE” (PLoS ONE, 2009).

This data set deals with the molecule itself. Description: SEC; Superdex-200 10/300; GNE kinase domain at 6 mg per mL in 20 mM HEPES pH 7.5, 500 mM NaCl, 5 mM MgCl2, 1 mM TCEP; apparent molecular weight from a calibration curve. On the technique in general: SEC sorts molecules by how far they enter the pores of the column.

B1: N-acetylmannosamine kinase domain of UDP-GlcNAc 2-epimerase/N-acetylmannosamine kinase (GNE), residues 406-720 (domain or fragment, human, UniProt Q9Y223 406-720, looked up)
chain: TLSALAVDLGGTNLRVAIVSMKGEIVKKYTQFNPKTYEERINLILQMCVEAAAEAVKLNCRILGVGISTGGRVNPREGIVLHSTKLIQEWNSVDLRTPLSDTLHLPVWVDNDGNCAALAERKFGQGKGLENFVTLITGTGIGGGIIHQHELIHGSSFCAAELGHLVVSLDGPDCSCGSHGCIEAYASGMALQREAKKLHDEDLLLVEGMSVPKDEAVGALHLIQAAKLGNAKAQSILRTAGTALGLGVVNILHTMNPSLVILSGVLASHYIHIVKDVIRQQALSSVQDVDVVVSDLVDPALLGAASMVLDYTTRR
notes: UDP-GlcNAc 2-epimerase/N-acetylmannosamine kinase (GNE), human, kinase domain, residues 406-720; cDNA codon optimized for E. coli and synthesized; Cloned into pET28-MHL (gi:134105571); For crystallization 1:100 chymotrypsin (w/w) and 5 mM ADP were added to the protein stock, so the crystallized chain may be trimmed; residues 475-498 are not seen in the electron density; A …
The stoichiometry N is the number of molecules, sites or subunits per partner or assembly. As to B1, the “stoichiometry N” value was 2.
